# PMC4130924 (Protein & Cell, 2014)
# B1: Human ubiquitin C-terminal hydrolase Uch37, full-length (enzyme, UniProt Q9Y5K5 1-329, looked up)
# chain: MTGNAGEWCLMESDPGVFTELIKGFGCRGAQVEEIWSLEPENFEKLKPVHGLIFLFKWQPGEEPAGSVVQDSRLDTIFFAKQVINNACATQAIVSVLLNCTHQDVHLGETLSEFKEFSQSFDAAMKGLALSNSDVIRQVHNSFARQQMFEFDTKTSAKEEDAFHFVSYVPVNGRLYELDGLREGPIDLGACNQDDWISAVRPVIEKRIQKYSEGEIRFNLMAIVSDRKMIYEQKIAELQRQLAEEEPMDTDQGNSMLSAIQSEVAKNQMLIEEEVQKLKRYKIENIRRKHNYLPFIMELLKTLAEHQQLIPLVEKAKEKQNAKKAQETK
# B2: Full-length Uch37 containing only one cysteine (C27), labelled with Alexa Fluor 555 and Alexa Fluor 647 (enzyme, human, UniProt Q9Y5K5 1-329, looked up)
# chain: MTGNAGEWALMESDPGVFTELIKGFGCRGAQVEEIWSLEPENFEKLKPVHGLIFLFKWQPGEEPAGSVVQDSRLDTIFFAKQVINNAAATQAIVSVLLNATHQDVHLGETLSEFKEFSQSFDAAMKGLALSNSDVIRQVHNSFARQQMFEFDTKTSAKEEDAFHFVSYVPVNGRLYELDGLREGPIDLGAANQDDWISAVRPVIEKRIQKYSEGEIRFNLMAIVSDRKMIYEQKIAELQRQLAEEEPMDTDQGNSMLSAIQSEVAKNQMLIEEEVQKLKRYKIENIRRKHNYLPFIMELLKTLAEHQQLIPLVEKAKEKQNAKKAQETK
# modifications: Cys27 conjugated to Alexa Fluor 555 or Alexa Fluor 647 (randomly)
# Assays:
# [1] = target: B1; experiment: SPR; Biacore3000, 25°C, PBS; Rpn13C immobilised on CM5 by amine coupling, Uch37 15.6-500 nmol/L flowed over; 1:1 Langmuir model; conditions: both partners purified
# [2] = target: B2; experiment: FRET or BRET; Uch37 (C27 only) randomly labelled with Alexa Fluor 555 and 647, 250 nmol/L, excited at 550 nm; then an excess molar amount of Rpn13C added, 30 min; conditions: both partners purified
# [3] = target: the molecule itself; experiment: time-resolved SAXS; stopped-flow mixing of Uch37 and Rpn13C at a 1:1 monomer molar ratio, overall 3.7 mg/mL, 8 ms to 600 s; I0 and Rg against time
# [4] = target: the molecule itself; experiment: FRET or BRET; Uch37 (C27 only) randomly labelled with Alexa Fluor 555 and 647, 250 nmol/L, excited at 550 nm; then an excess molar amount of Rpn13C added, 30 min
binder,measurement,setting,value
"Rpn13C (Rpn13 residues 270-407) (domain or fragment, UniProt Q16186 270-407, looked up) ILATMNVPAGPAGGQQVDLASVLTPEIMAPILANADVQERLLPYLPSGESLPQTADEIQNTLTSPQFQQALGMFSAALASGQLGPLMCQFGLPAEAVEAANKGDVEAFAKAMQNNAKPEQKEGDTKDKKDEEEDMSLD",Kd,[1],5.35 nM
same,binding result,[2],binds
B1,binding result,[3],binds
B2,binding result,[4],binds
